The values below come from patent publication US20100215655A1 (CHENGDU KANGHONG BIOTECHNOLOGIES, published 2010).

Experiment [1] concerns the target T1, recombinant VEGF (vascular endothelial cell growth factor) (UniProt P15692-4 27-191, limits assumed). The experiment can be described thus: cell-based or functional assay.
Experiment [2] deals with T1, recombinant VEGF (vascular endothelial …). The experiment can be described thus: ELISA, VEGF coated on plate, anti-human Ig-HRP detection. As for the experimental part: Affinities of the chimeric proteins to VEGF were determined by the VEGF binding assay in the present invention. Firstly, recombinant VEGF proteins (Chemicom) were coated in a 96-well ELISA plate, and non-specific protein binding sites of the plate were then blocked using 5% milk solution. Secondly, different concentrations of various chimeric proteins were added into each well, and incubated for 2 hours at 37° C. After washing, rabbit anti-human Ig-HRP (Sigma) was added into each well, and finally colorimetric enzyme substrates were added to the plate. The absorption OD readings were recorded with the use of an ELISA plate reader. A higher OD value indicated a stronger binding affinity of the chimeric proteins to VEGF.
A general note: In an ELISA, binding on a coated surface is turned into a signal by an enzyme label.

T1 sequence (P15692 other isoform, or with tags, fused parts or gaps limits assumed): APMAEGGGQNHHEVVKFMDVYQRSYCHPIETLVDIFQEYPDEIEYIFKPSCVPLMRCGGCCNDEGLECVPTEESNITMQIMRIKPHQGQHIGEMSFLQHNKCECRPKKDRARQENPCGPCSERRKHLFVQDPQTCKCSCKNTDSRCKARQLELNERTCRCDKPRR

B1: FP6′ (FLTd2-KDRd3-FLTd4,5-Fc) (Fc fusion, human, not shown: a dimerising Fc or GST)
chain: PFVEMYSEIPEIIHMTEGRELVIPCRVTSPNITVTLKKFPLDTLIPDGKRIIWDSRKGFIISNATYKEIGLLTCEATVNGHLYKTNYLTHRQTVVLSPSHGIELSVGEKLVLNCTARTELNVGIDFNWEYPSSKHQHKKLVNRDLKTQSGSEMKKFLSTLTIDGVTRSDQGLYTCAASSGLMTKKNSTFVRVHEKFITVKHRKQQVLETVAGKRSYRLSMKVKAFPSPEVVWLKDGLPATEKSARYLTRGYSLIIKDVTEEDAGNYTILLSIKQSNVFKNLTATLIVNVKPQIYEKAVSSFPDPALYPLGSRQILTCTAYGIPQPTIKWFWHPCNHNHSEARCDFCSNNEESFILDADSNMGNRIESITQRMAIIEGKNKMASTLVVADSRISGIYICIASNKVGTVGRNISFYIT
notes: domain: 5th Ig-like domain of FLT-1; Expressed in 293 cells; also called PF6′
With B1, in experiment [1], the “IC50 of inhibition of VEGF-induced HUVEC cell growth” value lay within 5 to 8 ng/mL. Further, the “concentration at which binding was detectable” value (“concentration” for short) in experiment [2] was determined as 1 µg/mL.

B2: FP4′ (FLTd2-KDRd3-FLTd4-Fc) (Fc fusion, not shown: a dimerising Fc or GST)
chain: PFVEMYSEIPEIIHMTEGRELVIPCRVTSPNITVTLKKFPLDTLIPDGKRIIWDSRKGFIISNATYKEIGLLTCEATVNGHLYKTNYLTHRQTVVLSPSHGIELSVGEKLVLNCTARTELNVGIDFNWEYPSSKHQHKKLVNRDLKTQSGSEMKKFLSTLTIDGVTRSDQGLYTCAASSGLMTKKNSTFVRVHEKFITVKHRKQQVLETVAGKRSYRLSMKVKAFPSPEVVWLKDGLPATEKSARYLTRGYSLIIKDVTEEDAGNYTILLSIKQSNVFKNLTATLIVNVKP
notes: Expressed in 293 cells
In the case of B2, the “IC50 of inhibition of VEGF-induced HUVEC cell growth” value in experiment [1] lay in the range of 5 to 8 ng/mL. The “concentration” value in experiment [2] is 1 µg/mL.

B3: FP2′ (KDRd1-FLTd2-KDRd3-Fc) (Fc fusion, not shown: a dimerising Fc or GST)
chain: PRLSIQKDILTIKANTTLQITCRGQRDLDWLWPNNQSGSEQRVEVTECSDGLFCKTLTIPKVIGNDTGAYKCFYRETDLASVIYVYPFVEMYSEIPEIIHMTEGRELVIPCRVTSPNITVTLKKFPLDTLIPDGKRIIWDSRKGFIISNATYKEIGLLTCEATVNGHLYKTNYLTHRQTVVLSPSHGIELSVGEKLVLNCTARTELNVGIDFNWEYPSSKHQHKKLVNRDLKTQSGSEMKKFLSTLTIDGVTRSDQGLYTCAASSGLMTKKNSTFVRVHEK
notes: Expressed in 293 cells
With B3, the “IC50 of inhibition of VEGF-induced HUVEC cell growth” value in experiment [1] was 5 to 8 ng/mL. The “concentration” value in experiment [2] worked out at 1 µg/mL.

B4: FP5′ (FLTd2-KDRd3,4,5-Fc) (Fc fusion, human, not shown: a dimerising Fc or GST)
chain: PFVEMYSEIPEIIHMTEGRELVIPCRVTSPNITVTLKKFPLDTLIPDGKRIIWDSRKGFIISNATYKEIGLLTCEATVNGHLYKTNYLTHRQTVVLSPSHGIELSVGEKLVLNCTARTELNVGIDFNWEYPSSKHQHKKLVNRDLKTQSGSEMKKFLSTLTIDGVTRSDQGLYTCAASSGLMTKKNSTFVRVHEKFVAFGSGMESLVEATVGERVRIPAKYLGYPPPEIKWYKNGIPLESNHTIKAGHVLTIMEVSERDTGNYTVILTNPIKSEKQSHVVSLVVYVPPQIGEKSLISPVDSYQYGTTQTLTCTVYAIPPPHHIHWYWQLEEECANEPSQAVSVTNPYPCEEWRSVEDFQGGNKIEVNKNQFALIEGKNKTVSTLVIQAANVSALYKCEAVNKVGRGERVISFHVT
notes: domain: 5th Ig-like domain of KDR; Expressed in 293 cells
Regarding B4, the “IC50 of inhibition of VEGF-induced HUVEC cell growth” value in experiment [1] was in the range of 5 to 8 ng/mL. The “concentration” value in experiment [2] stood at 1 µg/mL.

B5: FP1′ (FLTd2-KDRd3-Fc), chimeric protein of the prior art (Fc fusion, not shown: a dimerising Fc or GST)
chain: PFVEMYSEIPEIIHMTEGRELVIPCRVTSPNITVTLKKFPLDTLIPDGKRIIWDSRKGFIISNATYKEIGLLTCEATVNGHLYKTNYLTHRQTVVLSPSHGIELSVGEKLVLNCTARTELNVGIDFNWEYPSSKHQHKKLVNRDLKTQSGSEMKKFLSTLTIDGVTRSDQGLYTCAASSGLMTKKNSTFVRVHEK
As for B5, in experiment [1], the “IC50 of inhibition of VEGF-induced HUVEC cell growth” value was approximately 12 ng/mL.
